Experimental data reported in the supplement of paper PMC12455559.

Assay: purified protein yield per well (BCA); higher = higher soluble expression
Protocol: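 Candidate PET hydrolases were expressed in E. coli C41(DE3) in 2 mL autoinduction cultures in 24-deep-well plates, Ni-bead purified and released by SUMO protease cleavage on an OT-2 robot. Yield per well was measured by BCA; values below 25 ug (0.1 mg/mL) are below the detection threshold. Melting temperature was measured by differential scanning fluorimetry with Sypro Orange, ramping from 25 C at 0.3 C/step.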

Row | Sequence | purified protein yield per well
1 | ADNPYQRGPDPTRSSVAASRGTFATAQVGVPAGNGFGGGVIYYPTDTSQGTFGAVAIVPGYTAKWAAEGAWTGPWLASFGLVVIGIDTNSANDFDVARDRQLPAALDYLAQRGSVRGRVDTTRLAAMGHSMGGGGALNAALRRPSSKAAVGSAPYKPSGNLASDRVATLLLAGQNDTTVTPSYVDGLHRSIPATTEKGYVELSGAGHAFPTRANSTQMRVVTPWLKVFLDDDARYSQFLCPLMDSAGINRYGSTCPLLPPDGSTGSSSSLVGSGFGKCLDAGAGQDRSKVTITSCTGGGGQKWVFNTNGTITDPQSGRCLDVDARGTADNTAVATWTCHGESNQVWTRRA [ESM189] | < 25 µg
2 | ADNPYQRGPDPTVASVAATRGPFATAQLTVPAGNGFGGGYLYYPTDTSQGTWGAVAIVPGYSALFANEEAWMGPWLASFGFVVIGVETITRTDGADARATELLAALDYLTQRSAVRDRIDATRLAVMGHSAGGAGTILAAEQRPSLKAGVGLAPGTPGSLSLATDKVPMMVVGGQTDPTVTPAYLDNLYAGMPATTPSDFVQIAGADHLFFTRANNTEMKVLIPWLKIFLDNDTRYTQFLCPSLADPSGISLYRSKCPYLPPGTPSPSPSVSPSNPAAGCTASYRTVGSWPGGFQGEVTVTAGGAALNGWTVGWTLGSGQTITQVWNGTLTTSGSAVTVRNASYSGSVPAGGSITFGFLAAGTPSVPALTCAG [ESM028] | < 25 µg
3 | ADNPYQRGPDPTVASVAATRGTFATAQLTVPAGNGFGGGYIYYPTDTGHGTWGAVAIVPGYSALFADEEAWMGPWLASFGFVVIGVETITRSDGADARATELLAALDYLTQRSAVRDRVDPTRLAVMGHSAGGAGTILAAERRPSLKAAVGLAPGTPGTLSLATDKVPMMVIGGQTDPTVTPAYLDNLYAGMPTTTPSDFVQIAGADHLFFTRANNTEMKVLIPWLKIFLDNDTRYTQFLCPSLADPSGISLYRSKCPYLPPGTTSPSPPSPSPSSPSQSVSPSTPVTGCTAGYRTVGSWPGGFQGEVTVTAGSAAISGWTVGWTLGSGQTITQLWNGALTTSGSAVTVRNASYSGSVPAGGSVVFGFLANGTPSAPVLACASR [ESM027] | < 25 µg
4 | ADNPYQRGPDPTVASVAATRGTFATAQLTVPAGNGFGGGYVYYPTDTSQGTWGAVAIVPGYSARFADEEAWMGPWLASFGFVVIGVETITRTDGADARATQLLAALDYLVGQSPVRDRVDPARLAVMGHSAGGAGTIIAAERRPSLRAAVGLAPGTPGSLSLATDRVPMMVIGGQTDPTVTPSYLDNLYATVPAATPSDFVQIAGADHLFFTRANNTEMKVLIPWLKIFLDSDTRYTSLLCPSLADPSGISLYRSKCPYVPPGTTSPSPSSPSPSSPGPPVPVAACTATYRTVNAWPGGFQGEVVVTAGGTAITGWTVRWTLGSGQTISQLWNGNLTTSGSAVTVDSAAYNGSVPPAGSVVFGFLATGSPTTPAPVCASP [ESM046] | < 25 µg
5 | ADNPYQRGPDPTVASVAATRGTFATAQLTVPPGNGFGGGYIYYPTDTSHGTWGAVAIVPGYSALFANEEAWMGPWLASFGFVVIGVETNTRSDGADARATELLAALDYLTQQSAVRDRVDAGRLAVMGHSAGGAGTILAAERRPALKAAVGLAPGTPGSLSLATDKVPMMVIGGQTDPTVTPAYLDNLYAGMPTTTPSDFVQIAGADHLFFTRANNTEMKVLIPWLKIFLDNDTRYTQFLCPSLADPSGISLYRSKCPYLPPGTTSPSPSSSVTPSSPSSPSSPSTGCTAGYRTVGQWPGGFQGEVTVTAGSAAISGWTVNWTLGSGQSVTQLWNGTLTTSGSAVTVRNASYSGSVPAGGSVVFGYLADGTPSTPLLTCTGQ [ESM032] | < 25 µg
6 | ADNPYQRGPNPTLSSVRAGSGPYATTSTTVARSAVSGFGGGTVYYPTSTSDGTFGAVAMCPGYTATKESLAWFGPRVASHGFVVFIIDTVTTSDQPAQRGDELLAALDHLTRTSSVRSRIDASRLAVAGHSMGGGGTLEAAKDRPGLRAAVPLAPWNTTKNWSGNRVPTLIIGGQSDTIAAVSSHAVPFYTSLPTTPDKAYLE [DP074] | < 25 µg
7 | ADPGTGGGNGGGNTCQEDCGFERGPDPSVSMLEARNGPFSVRTSRVSGLVSGFGGGTIHYPTGQSGTMGAIVVIPGFVSAESSIDWWGSQLASHGFVVMTIDTNTGFDQPPSRARQINAALDYLVDQNRASGSPVNGMIDTSRLGVIGWSMGGGGTLRVATEGRIKAAIPLAPWDTSSRQFRSVQAPTLIFACGSDLIAPVRSHASPFYNALPNGLDKAYFEISRGSHYCANGGNTNNSRLSRLGVSWMKLHLDQDQRYNQFICGPRHESDRSISEYRGNC [ESM181] | < 25 µg
